Data reported in paper PMC7153000, “Radiosynthesis, Biological Evaluation, and Preclinical Study of a ^68Ga-Labeled Cyclic RGD Peptide as an Early Diagnostic Agent for Overexpressed αvβ3 Integrin Receptors in Non-Small-Cell Lung Cancer” (Contrast Media & Molecular Imaging, 2020).

Experiments:
[1] = physchem; assay type: physicochemical; conditions: pH 7.4
Procedure: In a 5 ml Eppendorf tube, 100 μl of the radiolabelled peptide, 0.99 ml of PBS, pH 7.4, and 1 ml n-octanol were mixed. After intense vortexing for 8 min, the two layers were separated by centrifugation. Then, 500 μl aliquots of aqueous and organic layers were transferred to a new tube, radioactivity was measured in a well-type gamma counter (Delshid Gamma counter, Tehran, Iran), and partition coefficient (log P) values were calculated (n = 3).

[2] = in vitro; assay type: in vitro ADME; conditions: human, plasma
Procedure: The protein binding properties of [^68Ga]Ga-DOTA-E(cRGDfK)2 in blood were investigated by protein precipitation. 1ml of the labeled complex and 3ml of human plasma were mixed and incubated for 1 hour at 37°C. Then, an equal volume of 10% trichloroacetic acid (TCA) was added, and samples were centrifuged at 3,000 rpm for 10 min […]. Precipitate was resuspended in 5% TCA and centrifuged at 3,000 rpm for 10 min. Precipitate and the supernatant fractions were analyzed for radioactivity in a gamma counter. Protein binding of [^68Ga]Ga-DOTA-E(cRGDfK)2 was expressed as the fraction of radioactivity bound to the protein, in percentage of the total radioactivity.

[3] = system: A549 tumor; design: species or system BALB/c mice; conditions: mouse, in vivo
Procedure: 100 μg of [^68Ga]Ga-DOTA-E(cRGDfK)2 formulated in 100 μL saline was injected via the tail vein of 3 groups of 3 BALB/c mice. At 30, 60, and 90 min postinjection, mice were euthanized using a lethal dose of ketamine/xylazine, and blood was collected from the heart using a preheparinised syringe. Tumor and normal organs were excised, washed, weighed, and the radioactivity of each organ was determined using a well-type gamma counter. The organ uptake was measured as percent of the injected dose per gram of organ tissue (%ID/g). A blocking experiment was performed in the presence of a 500-fold excess of unlabeled DOTA-E(cRGDfK)2 30 min before [^68Ga]Ga-DOTA-E(cRGDfK)2 injection.
6–8 weeks female BALB/c mice (with body weights of 20–25 g) were purchased from Royan Insitute (Amol, Iran). Animals were housed in wire cages under controlled conditions of temperature at 25°C, relative humidity around 50%, and 12/12 h light/dark cycles with food, and water was given ad libitum. 2 × 10^6 cell suspensions of human lung adenocarcinoma A549 in 100 μl PBS were injected subcutaneously in the right dorsal flank of each mouse. Palpable tumor diameter was measured using digital calipers twice weekly. When tumor size reached a mean tumor volume of 50–100 mm^3, animals received a tail vein injection of 740 kBq of [^68Ga]Ga-DOTA-E(cRGDfK)2 in 100 μl normal saline. […]

[4] = target: integrin αvβ3; conditions: cRGDfK as reference; cited from earlier work
Description: Based on previous studies, multimeric cyclic RGD has higher (20–100 more) αvβ3 binding affinity than its monomeric alternatives. […] Many other works reported higher dissociation constant or lower affinity.

Molecule	logD [1]	In vitro protein binding ([2]; 1 h)	fraction unbound at 1 h ([2]; In vitro protein binding)	Clearance [3]	Uptake of radioactivity in the kidney and intestine [3]	Kd [4]
N=C(N)NCCC[C@@H]1NC(=O)[C@H](CCCCNC(=O)CC[C@H](NC(=O)CN2CCN(CC(=O)O)CCN(CC(=O)O)CCN(CC(=O)O)CC2)C(=O)NCCCC[C@@H]2NC(=O)[C@@H](Cc3ccccc3)NC(=O)[C@H](CC(=O)O)NC(=O)CNC(=O)[C@H](CCCNC(=N)N)NC2=O)NC(=O)[C@@H](Cc2ccccc2)NC(=O)[C@H](CC(=O)O)NC(=O)CNC1=O [[^68Ga]Ga-DOTA-E(cRGDfK)2, metal not drawn]	-3.97 ± 0.13	2.88%	> 0.95	fast and via the renal system	moderate uptake	
cRGDfK						1300 nM
